Experimental findings from PMC5895741, “Quantitative characterization of all single amino acid variants of a viral capsid-based drug delivery vehicle” (Nature Communications, 2018) are described below.

This series concerns the molecule itself. Description: SEC; in vitro acid screen of purified VLPs; HPLC SEC peak height relative to pH 7.3 (normalized acid tolerance, n = 3).

B1: MS2 bacteriophage coat protein CP[T71H/E76C] (natural protein)
chain: ASNFTQFVLVDNGGTGDVTVAPSNFANGVAEWISSNSRSQAYKVTCSVRQSSAQNRKYTIKVEVPKVATQHVGGVCLPVAAWRSYLNMELTIPIFATNSDCELIVKAMQGLLKDGNPIPSAIAANSGIY
notes: MS2 bacteriophage coat protein (MS2 CP); also called CP[T71/E76C]; double mutant
Regarding B1, the binding result is given as “binds”.
